Here are results for two substances from publication PMC4024195.

For test [1], the target named is glucokinase-YN155 (UniProt P17712). As to the kind of experiment: BiFC assay. Conditions: COS1 cells, 25 mM glucose, without dibutyryl cAMP; parent: est. 36; read off a plot.
The target is the same in test [2]. As to the kind of experiment: BiFC assay. Conditions: COS1 cells, 25 mM glucose, read off a plot.

UniProt P17712, sequence (P17712 whole entry): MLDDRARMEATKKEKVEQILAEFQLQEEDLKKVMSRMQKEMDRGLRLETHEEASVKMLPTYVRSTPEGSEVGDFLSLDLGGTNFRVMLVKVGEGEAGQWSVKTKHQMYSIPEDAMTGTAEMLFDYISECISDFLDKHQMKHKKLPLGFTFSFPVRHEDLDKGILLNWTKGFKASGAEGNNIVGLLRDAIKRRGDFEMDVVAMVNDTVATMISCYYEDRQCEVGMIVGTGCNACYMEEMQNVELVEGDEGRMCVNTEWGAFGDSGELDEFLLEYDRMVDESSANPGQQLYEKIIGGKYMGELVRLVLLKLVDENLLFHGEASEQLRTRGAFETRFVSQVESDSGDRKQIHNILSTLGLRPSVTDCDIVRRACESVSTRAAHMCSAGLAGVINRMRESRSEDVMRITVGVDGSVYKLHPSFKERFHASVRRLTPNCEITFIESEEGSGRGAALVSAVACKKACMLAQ

Consider “wild-type PFK2/FBPase2-YC155 (from UniProt P07953) S32D”, for which the response (% transfected cells) in test [1] came out at 39.

On to “wild-type PFK2/FBPase2-YC155 (from UniProt P07953) S32A”, for which the response (% transfected cells) in test [1] is 39; in test [2] (50 μM dibutyryl cAMP for 1 h, parent: est. 28), 33; in test [2] (without dibutyryl cAMP, parent: est. 36), 39.
